Experimental data as given in patent publication US10392620B2, “Cytochrome B (CYTB) nucleic acid molecules that control pathogens” (Dow AgroSciences LLC, priority 2016, dated 2019).

Legend:
[1] = test system: Zymoseptoria tritici (SEPTTR) US-184; test: CytB dsRNA foliar application bioassay on wheat seedlings, SEPTTR US-184; type: in vivo; conditions: compared to the non-treated control; strain not given
Description: RNAi (dsRNA) fungicidal solutions were prepared in TE buffer (pH 8.0), which were then mixed with 9 volumes of phosphate buffer (pH 7.5) containing 0.1% Triton X-100. The fungicidal solutions were applied to wheat seedlings using an automated booth sprayer to run-off. All sprayed plants were allowed to air dry prior to further handling.
The following served as controls: 1% silwet in phosphate buffer control, disease pressure control (untreated), and clean plant control (negative control).
(§1) These plants were inoculated with an aqueous spore suspension of Zymoseptoria tritici either prior to or after fungicidal treatments. After inoculation the plants were kept in 100% relative humidity to allow spores to germinate and infect the leaves. The plants were then transferred to a greenhouse until disease developed.

[2] = test system: Zymoseptoria tritici (SEPTTR-184); test: Efficacy of target gene fragments (MgCytB dsRNA tiles) on wheat plants, SEPTTR-184; type: in vivo; set-up: Average of 2 trials SEPTTR-184 3DC / Average of 2 trials SEPTTR-184 1DP: scale not given here; conditions: for ED50 SEPTTR-184 1DP / ED80 SEPTTR-184 1DP / Disease Control All Rates Average SEPTTR-184 1DP / Sum of Disease Control SEPTTR-184 1DP / Average of 2 trials SEPTTR-184 1DP: 1DP (preventative); for Disease Control All Rates Average SEPTTR-184 1DP / Disease Control All Rates Average SEPTTR-184 3DC: average of 200, 50, 12.5, 3.125 ppm; for Sum of Disease Control SEPTTR-184 1DP / Sum of Disease Control SEPTTR-184 3DC: sum over 200, 50, 12.5, 3.125 ppm; for ED50 SEPTTR-184 3DC / ED80 SEPTTR-184 3DC / Disease Control All Rates Average SEPTTR-184 3DC / Sum of Disease Control SEPTTR-184 3DC / Average of 2 trials SEPTTR-184 3DC: 3DC (curative)
Description: The 200 ppm rate for each treatment was prepared by adding the calculated volume of the corresponding dsRNA solution in TE buffer. Lower rates were prepared as 4-fold dilutions (50 ppm, 12.5 ppm, and 3.12 ppm). A non-target dsRNA control (YFP), a TE/phosphate buffer control, disease pressure control, and clean plant control were included.
as §1

Molecule	control of Septoria leaf blotch on wheat seedlings [1]	ED50 SEPTTR-184 1DP [2] [ppm]	ED80 SEPTTR-184 1DP [2] [ppm]	Disease Control All Rates Average SEPTTR-184 1DP [2] [%]	Sum of Disease Control SEPTTR-184 1DP [2] [%]	ED50 SEPTTR-184 3DC [2] [ppm]	ED80 SEPTTR-184 3DC [2] [ppm]	Disease Control All Rates Average SEPTTR-184 3DC [2] [%]	Sum of Disease Control SEPTTR-184 3DC [2] [%]	Average of 2 trials SEPTTR-184 1DP ([2]; 3.125 ppm)	Average of 2 trials SEPTTR-184 3DC ([2]; 3.125 ppm)	Average of 2 trials SEPTTR-184 1DP ([2]; 12.5 ppm)	Average of 2 trials SEPTTR-184 3DC ([2]; 12.5 ppm)	Average of 2 trials SEPTTR-184 1DP ([2]; 50 ppm)	Average of 2 trials SEPTTR-184 3DC ([2]; 50 ppm)	Average of 2 trials SEPTTR-184 1DP ([2]; 200 ppm)	Average of 2 trials SEPTTR-184 3DC ([2]; 200 ppm)	level of control, ranking among fragments ([2]; in vivo)
MgCytB-T1: 267 bp dsRNA of Zymoseptoria CytB region 1, location 364-630 (SEQ ID NO:4) (nucleic acid, listed as Zymoseptoria tritici, complementary strand of dsRNA) GTTCTGATGATGGCAACCGCATTCTTAGGGTATGTATTACCTTATGGTCAAATGTCTTTATGAGGAGCAACAGTTATAACTAACTTATTGAGTGCAATACCTTGAGTTGGACAAGACATAGTTGAATTCGTATGAGGTGGATTTTCTGTTAACAATGCAACATTGAACAGATTCTTTGCTCTACATTTCGTTTTACCGTTTGTGTTAGCTGCATTAGTTTTAATGCATCTAATAGCTTTACACGATACAGCGGGTTCAGGAAATCCT	observed to control Septoria leaf blotch	<3.125	200	66	263	<3.125	159	79	318	53	77	58	76	71	79	80	85	
MgCytB-T3: 116 bp dsRNA of Zymoseptoria CytB region 3, location 279-394 (SEQ ID NO:6) (nucleic acid, listed as Zymoseptoria tritici, long dsRNA, chemistry not given here, further chemistry not given here) TTACCTGCACGTGGGTAGAGGGTTATACTACGGGTCATACAAAGCCCCTAGAACATTAACATGAACAATCGGTACTATAATACTAGTTCTGATGATGGCAACCGCATTCTTAGGGT	observed to control Septoria leaf blotch	<3.125	>200	68	271	<3.125	<3.125	84	334	59	84	64	84	74	81	74	84	best level of control
MgCytB-T2: 203 bp dsRNA of Zymoseptoria CytB region 2, location 603-805 (SEQ ID NO:5) (nucleic acid, listed as Zymoseptoria tritici, complementary strand of dsRNA) ACACGATACAGCGGGTTCAGGAAATCCTTTAGGTGTATCAGGTAACTACGATAGATTACCATTCGCCCCTTACTTTATATTCAAAGATTTAATAACAATATTTTTATTCATTATAGTGTTATCAATATTTATTTTCTTTATGCCTAACGTTTTAGGTGACAGCGAGAATTATGTTATGGCTAACCCTATGCAAACTCCACCTG	observed to control Septoria leaf blotch	<3.125	>200	71	285	<3.125	27	82	329	67	77	71	77	71	85	77	90	
